Assay results: patent US20220323445A1, “REDUCING IMMUNOGENICITY TO PEGLOTICASE” (Horizon Therapeutics Ireland DAC, priority 2020, published 2022)
Where two headings read alike, the source gives them in different places.

Legend:
[1] = cited from earlier work
[2] = system: patients with uncontrolled gout; experiment: Tender joint count (68-point) and swollen joint count (66-point), open-label study; format: in vivo, human; conditions: mITT
Procedure: Tender and Swollen Joint Counts: Tender and swollen (excludes hip) joint counts were recorded at the Week −4 or week −6 (prior to the first dose of MTX) Visit during the MTX Run-in Period for the open-label and randomized studies, respectively; prior to pegloticase infusion at the Day 1 and Weeks 14, 24 and 36 Visits, or at the Day 1 and weeks 6, 14, 20, 24, 30, 36, and 44 visits during the Pegloticase+IMM Period for the open-label and randomized studies, respectively; and at the End of Pegloticase Infusions Visit (if applicable) and the Week 52/End of Study/Early Termination Visit and the Post Treatment 3 and 6 month Follow-up visits. Tender and swollen joint counts were assessed by physical examination.

[3] = system: anti-pegloticase antibodies; conditions: cited from earlier work
[4] = Day 1 vs Methotrexate Baseline, n=14
[5] = Early Termination Visit vs Methotrexate Baseline, n=3
[6] = Early Termination Visit vs Pegloticase Baseline, n=3
[7] = End of Pegloticase Infusions Visit vs Methotrexate Baseline, n=2
[8] = End of Pegloticase Infusions Visit vs Pegloticase Baseline, n=2
[9] = End of Pegloticase Infusions Visit, n=2
[10] = Week 14 vs Methotrexate Baseline, n=14
[11] = Week 14 vs Pegloticase Baseline, n=14
[12] = Week 24 vs Methotrexate Baseline, n=11
[13] = Week 24 vs Pegloticase Baseline, n=11
[14] = Week 36 vs Methotrexate Baseline, n=9
[15] = Week 36 vs Pegloticase Baseline, n=9
[16] = Week 52/ET vs Methotrexate Baseline, n=3
[17] = Week 52/ET vs Pegloticase Baseline, n=3

CN(Cc1cnc2nc(N)nc(N)c2n1)c1ccc(C(=O)N[C@@H](CCC(=O)O)C(=O)O)cc1 [MTX, methotrexate]
Increased susceptibility to infection ([1]; RA): < 1% | Leukopenia ([1]; RA): 28% | Nausea and vomiting ([1]; RA): 12% | Increased susceptibility to infection ([1]; renal transplant): 20% | Leukopenia ([1]; renal transplant): > 50% | neoplasia (lymphoma) ([1]; renal transplant): 0.5% | neoplasia (other than lymphoma) ([1]; renal transplant): 3%

B1: pegloticase (protein)
chain: TYKKNDEVEFVRTGYGKDMIKVLHIQRDGKYHSIKEVATTVQLTLSSKKDYLHGDNSDVIPTDTIKNTVNVLAKFKGIKSIETFAVTICEHFLSSFKHVIRAQVYVEEVPWKRFEKNGVKHVHAFIYTPTGTHFCEVEQIRNGPPVIHSGIKDLKVLKTTQSGFEGFIKDQFTTLPEVKDRCFATQVYCKWRYHQGRDVDFEATWDTVRSIVLQKFAGPYDKGEYSPSVQKTLYDIQVLTLGQVPEIEDMEISLPNIHYLNIDMSKMGLINKEEVLLPLDNPYGKITGTVKRKLSSRL
modifications: monomethoxy PEG conjugated; Krystexxa Sequence
notes: covalent conjugate of uricase produced by a genetically modified strain of Escherichia coli and monomethoxypoly (ethylene glycol)
Swollen Joint Count, Observed, Mean (SD) ([2]; Day 1, n=14): 5.3 (6.94) | Swollen Joint Count, Observed, Median ([2]; Day 1, n=14): 3.5 | Tender Joint Count, Observed, Mean (SD) ([2]; Day 1, n=14): 9.6 (11.03) | Tender Joint Count, Observed, Median ([2]; Day 1, n=14): 7.0 | Swollen Joint Count, Change from Baseline, Mean (SD) [2, 4]: −0.7 (5.21) | Swollen Joint Count, Change from Baseline, Median [2, 4]: 0.5 | Tender Joint Count, Change from Baseline, Mean (SD) [2, 4]: −1.9 (9.75) | Tender Joint Count, Change from Baseline, Median [2, 4]: 0.0 | Swollen Joint Count, Change from Baseline, Mean (SD) [2, 5]: −1.0 (1.73) | Swollen Joint Count, Change from Baseline, Median [2, 5]: 0.0 | Tender Joint Count, Change from Baseline, Mean (SD) [2, 5]: 0.7 (5.13) | Tender Joint Count, Change from Baseline, Median [2, 5]: 2.0 | Swollen Joint Count, Change from Baseline, Mean (SD) [2, 6]: −3.3 (3.06) | Swollen Joint Count, Change from Baseline, Median [2, 6]: −4.0 | Tender Joint Count, Change from Baseline, Mean (SD) [2, 6]: −2.7 (4.16) | Tender Joint Count, Change from Baseline, Median [2, 6]: −4.0 | Swollen Joint Count, Observed, Mean (SD) ([2]; Early Termination Visit, n=3): 0.7 (0.58) | Swollen Joint Count, Observed, Median ([2]; Early Termination Visit, n=3): 1.0 | Tender Joint Count, Observed, Mean (SD) ([2]; Early Termination Visit, n=3): 7.7 (8.96) | Tender Joint Count, Observed, Median ([2]; Early Termination Visit, n=3): 3.0 | Swollen Joint Count, Change from Baseline, Mean (SD) [2, 7]: −7.0 (4.24) | Swollen Joint Count, Change from Baseline, Median [2, 7]: −7.0 | Tender Joint Count, Change from Baseline, Mean (SD) [2, 7]: −12.0 (7.07) | Tender Joint Count, Change from Baseline, Median [2, 7]: −12.0 | Swollen Joint Count, Change from Baseline, Mean (SD) [2, 8]: −2.0 (2.83) | Swollen Joint Count, Change from Baseline, Median [2, 8]: −2.0 | Tender Joint Count, Change from Baseline, Mean (SD) [2, 8]: −3.0 (5.66) | Tender Joint Count, Change from Baseline, Median [2, 8]: −3.0 | Swollen Joint Count, Observed, Mean (SD) [2, 9]: 0.0 (0.00) | Swollen Joint Count, Observed, Median [2, 9]: 0.0 | Tender Joint Count, Observed, Mean (SD) [2, 9]: 2.0 (2.83) | Tender Joint Count, Observed, Median [2, 9]: 2.0 | Swollen Joint Count, Observed, Mean (SD) ([2]; Week 14, n=14): 1.7 (3.73) | Swollen Joint Count, Observed, Median ([2]; Week 14, n=14): 0.0 | Tender Joint Count, Observed, Mean (SD) ([2]; Week 14, n=14): 4.6 (6.16) | Tender Joint Count, Observed, Median ([2]; Week 14, n=14): 2.0 | Swollen Joint Count, Change from Baseline, Mean (SD) [2, 10]: −4.3 (7.38) | Swollen Joint Count, Change from Baseline, Median [2, 10]: −2.0 | Tender Joint Count, Change from Baseline, Mean (SD) [2, 10]: −7.0 (14.20) | Tender Joint Count, Change from Baseline, Median [2, 10]: 0.0 | Swollen Joint Count, Change from Baseline, Mean (SD) [2, 11]: −3.6 (7.04) | Swollen Joint Count, Change from Baseline, Median [2, 11]: −2.5 | Tender Joint Count, Change from Baseline, Mean (SD) [2, 11]: −5.1 (8.12) | Tender Joint Count, Change from Baseline, Median [2, 11]: −5.0 | Swollen Joint Count, Observed, Mean (SD) ([2]; Week 24, n=11): 0.5 (1.21) | Swollen Joint Count, Observed, Median ([2]; Week 24, n=11): 0.0 | Tender Joint Count, Observed, Mean (SD) ([2]; Week 24, n=11): 2.6 (3.88) | Tender Joint Count, Observed, Median ([2]; Week 24, n=11): 0.0 | Swollen Joint Count, Change from Baseline, Mean (SD) [2, 12]: −6.6 (9.03) | Swollen Joint Count, Change from Baseline, Median [2, 12]: −3.0 | Tender Joint Count, Change from Baseline, Mean (SD) [2, 12]: −10.2 (14.27) | Tender Joint Count, Change from Baseline, Median [2, 12]: −4.0 | Swollen Joint Count, Change from Baseline, Mean (SD) [2, 13]: −5.1 (6.66) | Swollen Joint Count, Change from Baseline, Median [2, 13]: −3.0 | Tender Joint Count, Change from Baseline, Mean (SD) [2, 13]: −6.8 (8.16) | Tender Joint Count, Change from Baseline, Median [2, 13]: −4.0 | Swollen Joint Count, Observed, Mean (SD) ([2]; Week 36, n=9): 0.1 (0.33) | Swollen Joint Count, Observed, Median ([2]; Week 36, n=9): 0.0 | Tender Joint Count, Observed, Mean (SD) ([2]; Week 36, n=9): 2.1 (4.54) | Tender Joint Count, Observed, Median ([2]; Week 36, n=9): 0.0 | Swollen Joint Count, Change from Baseline, Mean (SD) [2, 14]: −7.8 (10.81) | Swollen Joint Count, Change from Baseline, Median [2, 14]: −3.0 | Tender Joint Count, Change from Baseline, Mean (SD) [2, 14]: −12.3 (14.56) | Tender Joint Count, Change from Baseline, Median [2, 14]: −7.0 | Swollen Joint Count, Change from Baseline, Mean (SD) [2, 15]: −6.2 (8.15) | Swollen Joint Count, Change from Baseline, Median [2, 15]: −4.0 | Tender Joint Count, Change from Baseline, Mean (SD) [2, 15]: −7.8 (8.94) | Tender Joint Count, Change from Baseline, Median [2, 15]: −4.0 | Swollen Joint Count, Change from Baseline, Mean (SD) [2, 16]: −21.0 (9.64) | Swollen Joint Count, Change from Baseline, Median [2, 16]: −25.0 | Tender Joint Count, Change from Baseline, Mean (SD) [2, 16]: −24.0 (21.38) | Tender Joint Count, Change from Baseline, Median [2, 16]: −17.0 | Swollen Joint Count, Change from Baseline, Mean (SD) [2, 17]: −13.0 (13.00) | Swollen Joint Count, Change from Baseline, Median [2, 17]: −13.0 | Tender Joint Count, Change from Baseline, Mean (SD) [2, 17]: −16.0 (17.52) | Tender Joint Count, Change from Baseline, Median [2, 17]: −15.0 | Swollen Joint Count, Observed, Mean (SD) ([2]; Week 52/ET, n=3): 0.0 (0.00) | Swollen Joint Count, Observed, Median ([2]; Week 52/ET, n=3): 0.0 | Tender Joint Count, Observed, Mean (SD) ([2]; Week 52/ET, n=3): 5.3 (3.21) | Tender Joint Count, Observed, Median ([2]; Week 52/ET, n=3): 4.0 | patients with antibody titer exceeding 1:2430 at any time who maintained a response ([3]; 7 of 65 patients): 10.8% | patients with antibody titers exceeding 1:2430 who developed IRs ([3]; 31 of 52 patients): 60% | patients who never had an antibody titer above 1:2430 (comparison for maintained response) ([3]; 58/65): 89.2% | participants with high antibody titers who maintained a response (serum urate <6 mg/dL) ([3]; second study): 1 of 52 participants
